Data: patent US20240010749A1 (Merck KGaA, published 2024)

Tests used:
[1] = target: T1, human CEACAM5 expressed on cancer cell lines (MKN-45, NCI-H441, SNU-16, SK-CO-1, LS174T) (human, UniProt P06731 35-685); assay: cell-based or functional assay
T1 sequence: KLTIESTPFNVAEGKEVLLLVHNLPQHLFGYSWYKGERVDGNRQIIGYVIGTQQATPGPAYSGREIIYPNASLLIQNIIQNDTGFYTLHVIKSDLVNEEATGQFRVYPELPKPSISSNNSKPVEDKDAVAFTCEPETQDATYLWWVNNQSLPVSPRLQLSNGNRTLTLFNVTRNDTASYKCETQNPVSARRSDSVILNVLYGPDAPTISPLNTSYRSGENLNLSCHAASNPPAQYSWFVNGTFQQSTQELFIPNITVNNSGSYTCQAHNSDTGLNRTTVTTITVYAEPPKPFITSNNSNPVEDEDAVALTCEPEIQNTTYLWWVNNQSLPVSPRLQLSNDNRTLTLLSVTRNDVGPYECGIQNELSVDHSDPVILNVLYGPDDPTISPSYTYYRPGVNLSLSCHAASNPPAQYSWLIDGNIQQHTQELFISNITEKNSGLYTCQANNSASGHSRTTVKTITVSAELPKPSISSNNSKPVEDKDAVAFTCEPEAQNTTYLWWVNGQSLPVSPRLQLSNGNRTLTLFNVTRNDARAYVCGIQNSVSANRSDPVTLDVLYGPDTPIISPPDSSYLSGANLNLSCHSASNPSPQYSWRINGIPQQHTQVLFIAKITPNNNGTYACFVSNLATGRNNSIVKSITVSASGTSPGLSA

[2] = target: T1, human CEACAM5 expressed on cancer cell …; assay: cell-based or functional assay; remark: listed apart in the source
[3] = target: T1, human CEACAM5 expressed on cancer cell …; assay: cell binding on MKN45 cells, average of several experiments

Binder	fold higher potency than ADC SAR DM4 against SK-CO-1 cancer cells (cell viability) [1] [fold]	IC50 [M], cell viability (CellTiter-Glo, 6 days), LS174T [2] [M]	IC50 [M], cell viability (CellTiter-Glo, 6 days), MKN-45 [2] [M]	IC50 [M], cell viability (CellTiter-Glo, 6 days), SK-CO-1 [2] [M]	IC50 [M], cell viability (CellTiter-Glo, 6 days), SNU-16 [2] [M]	EC50 [3] [nM]
ADC1 (mAb1-glucuronid-exatecan) (other, exatecan attached through the glucuronide linker of DL1 (maleimide) to cysteines of reduced interchain disulfides; DAR 7.9) heavy: EVQLQESGPGLVKPSQTLSLTCTVSDGSVSRGGYYLTWIRQHPGKGLEWIGYIYYSGSTYFNPSLRSRVTMSVDTSKNQFSLKLSSVTAADTAVYYCARGIAVAPFDYWGQGTLVTVSSASTKGPSVFPLAPSSKSTSGGTAALGCLVKDYFPEPVTVSWNSGALTSGVHTFPAVLQSSGLYSLSSVVTVPSSSLGTQTYICNVNHKPSNTKVDKRVEPKSCDKTHTCPPCPAPPVAGPSVFLFPPKPKDTLMISRTPEVTCVVVDVSHEDPEVKFNWYVDGVEVHNAKTKPREEQYNSTYRVVSVLTVLHQDWLNGKEYKCKVSNKALPSSIEKTISKAKGQPREPQVYTLPPSREEMTKNQVSLTCLVKGFYPSDIAVEWESNGQPENNYKTTPPVLDSDGSFFLYSKLTVDKSRWQQGNVFSCSVMHEALHNHYTQKSLSLSPG light: not shown	2.9	3.8e-10	6.2e-10	8.5e-11	3.2e-10	
mAb1 (antibody, human IgG1, kappa, Labelled with pHrodo in the internalization assay; also called so8G4) heavy: EVQLQESGPGLVKPSQTLSLTCTVSDGSVSRGGYYLTWIRQHPGKGLEWIGYIYYSGSTYFNPSLRSRVTMSVDTSKNQFSLKLSSVTAADTAVYYCARGIAVAPFDYWGQGTLVTVSSASTKGPSVFPLAPSSKSTSGGTAALGCLVKDYFPEPVTVSWNSGALTSGVHTFPAVLQSSGLYSLSSVVTVPSSSLGTQTYICNVNHKPSNTKVDKRVEPKSCDKTHTCPPCPAPPVAGPSVFLFPPKPKDTLMISRTPEVTCVVVDVSHEDPEVKFNWYVDGVEVHNAKTKPREEQYNSTYRVVSVLTVLHQDWLNGKEYKCKVSNKALPSSIEKTISKAKGQPREPQVYTLPPSREEMTKNQVSLTCLVKGFYPSDIAVEWESNGQPENNYKTTPPVLDSDGSFFLYSKLTVDKSRWQQGNVFSCSVMHEALHNHYTQKSLSLSPG light: not shown						10.4
ADC2 (mAb1-AAN-exatecan) (other, exatecan attached through the legumain-cleavable Ala-Ala-Asn linker of DL2 (maleimide) to cysteines of reduced interchain disulfides; DAR 7.6) heavy: EVQLQESGPGLVKPSQTLSLTCTVSDGSVSRGGYYLTWIRQHPGKGLEWIGYIYYSGSTYFNPSLRSRVTMSVDTSKNQFSLKLSSVTAADTAVYYCARGIAVAPFDYWGQGTLVTVSSASTKGPSVFPLAPSSKSTSGGTAALGCLVKDYFPEPVTVSWNSGALTSGVHTFPAVLQSSGLYSLSSVVTVPSSSLGTQTYICNVNHKPSNTKVDKRVEPKSCDKTHTCPPCPAPPVAGPSVFLFPPKPKDTLMISRTPEVTCVVVDVSHEDPEVKFNWYVDGVEVHNAKTKPREEQYNSTYRVVSVLTVLHQDWLNGKEYKCKVSNKALPSSIEKTISKAKGQPREPQVYTLPPSREEMTKNQVSLTCLVKGFYPSDIAVEWESNGQPENNYKTTPPVLDSDGSFFLYSKLTVDKSRWQQGNVFSCSVMHEALHNHYTQKSLSLSPG light: not shown	2.7	2.8e-10	4.7e-10	6.9e-11	2.8e-10	
hmn-14 (antibody, human IgG1, kappa, V domains shown, Known comparator antibody, human IgG; also called labetuzumab) VH: EVQLVESGGGVVQPGRSLRLSCSASGFDFTTYWMSWVRQAPGKGLEWIGEIHPDSSTINYAPSLKDRFTISRDNAKNTLFLQMDSLRPEDTGVYFCASLYFGFPWFAYWGQGTPVTVSS VL: DIQLTQSPSSLSASVGDRVTITCKASQDVGTSVAWYQQKPGKAPKLLIYWTSTRHTGVPSRFSGSGSGTDFTFTISSLQPEDIATYYCQQYSLYRSFGQGTKVEIKR						16
